Results reported in paper PMC10827111 (bioRxiv, 2024).

Assays:
Assay in all cases: ELISA
[1] = target: SARS-CoV-2 S2 subdomain (Sino Biological) (SARS-CoV-2 (Wuhan-Hu-1 reference), UniProt P0DTC2)
[2] = target: MERS-CoV S2 subdomain (MERS-CoV, strain ; stand-in …, UniProt K0BRG7)
[3] = target: HCoV-OC43 S-2P (HCoV-OC43 (strain ; numbering …, UniProt P36334, stabilised)

Measured: binding result

B1: antibody 54043-5 (IgG) (antibody, V domains shown)
VH: QVQLQESGPGLVKPSQTLSLTCTVSGDSISNSSYYWSWIRQYPSRRLEWIGYIYYNGRTYYNPSLNSRLSISLDTSKNHFSLKLSSLTAADTALYYCARGFLGYCAGGSCFLNWLDPWGQGTLVTVSS
VL: EIIMTQSPATLSVSPGGRATLSCRASQSVSNNLAWYQQKPGQTPRLLIHGASTRATGIPARFSGSGSGTEFTLTISSLQSEDFAVYYCHQYHNWLLTFGGGTKVEIK
binds: [1] | [2] | [3]
